Laboratory results published in paper PMC2978110, “EBP1 Is a Novel E2F Target Gene Regulated by Transforming Growth Factor-β”.
Substitutions are numbered along the chain they refer to. In names and notes the source's numbering stands.

Tests used:
GST-E2F1 [1] = target: T1, GST-E2F1 (UniProt Q01094 1-437); test: EMSA; EMSA as in ref 34 (buffer, pH, temperature not given); 1.8 ug GST-E2F1 per reaction, 24 ng/ul ds mutant adenovirus E2 E2F-site oligo as nonspecific competitor; details: protein: recombinant, label: 32P
T1 sequence (Q01094 whole entry): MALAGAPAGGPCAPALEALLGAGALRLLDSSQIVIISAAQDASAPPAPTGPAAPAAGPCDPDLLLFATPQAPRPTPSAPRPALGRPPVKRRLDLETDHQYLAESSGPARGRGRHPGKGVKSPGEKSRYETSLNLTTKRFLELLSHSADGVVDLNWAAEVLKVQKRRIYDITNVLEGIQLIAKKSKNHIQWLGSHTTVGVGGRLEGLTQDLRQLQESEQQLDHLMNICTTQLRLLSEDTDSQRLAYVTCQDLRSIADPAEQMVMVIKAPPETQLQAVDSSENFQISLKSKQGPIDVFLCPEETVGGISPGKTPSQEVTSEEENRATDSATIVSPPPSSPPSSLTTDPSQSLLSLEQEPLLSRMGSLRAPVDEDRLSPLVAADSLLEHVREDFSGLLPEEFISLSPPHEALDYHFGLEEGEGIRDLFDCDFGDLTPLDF

GST-E2F1 [2] = target: T1, GST-E2F1; test: competition; 100-fold excess vs EBP1 -158 and -113 probes; EMSA as in ref 34 (buffer, pH, temperature not given); 1.8 ug GST-E2F1 per reaction, 24 ng/ul ds mutant adenovirus E2 E2F-site oligo as nonspecific competitor; details: protein: recombinant, blunt
GST-E2F1 [3] = target: T1, GST-E2F1; test: EMSA; additional low-mobility complex; EMSA as in ref 34 (buffer, pH, temperature not given); 1.8 ug GST-E2F1 per reaction, 24 ng/ul ds mutant adenovirus E2 E2F-site oligo as nonspecific competitor; details: protein: recombinant; label: 32P; blunt
GST-E2F1 [4] = target: T1, GST-E2F1; test: competition; 100-fold excess vs EBP1 -158 and -113 probes; substantially reduced; EMSA as in ref 34 (buffer, pH, temperature not given); 1.8 ug GST-E2F1 per reaction, 24 ng/ul ds mutant adenovirus E2 E2F-site oligo as nonspecific competitor; details: protein: recombinant; blunt
[5] = terminal G:G mismatch as printed

B1: EBP1 -166 (-113*) (dsDNA)
DNA 1: TTAGGAGCGCGAGAGGCAGGCTGGGAATTGTAGTTCGAAGGCCCTCGAGAAAAAATAGAGTC
DNA 2: GACTCTATTTTTTCTCGAGGGCCTTCGAACTACAATTCCCAGCCTGCCTCTCGCGCTCCTAA
binding result (GST-E2F1 [1]; blunt): binds

B2: EBP1 -155 probe (-155 to -120) (dsDNA)
DNA 1: GAGCTTCGAACTACAATTCCCAGCCTGCCTCTCGCGCTG
DNA 2: CAGCGCGAGAGGCAGGCTGGGAATTGTAGTTCGAAGCTC
binding result (GST-E2F1 [1]; blunt): no binding

B3: EBP1 -168 probe (-168 to -130) (dsDNA)
DNA 1: GCTTAGGAGCGCGAGAGGCAGGCTGGGAATTGTAGTTC
DNA 2: GAACTACAATTCCCAGCCTGCCTCTCGCGCTCCTAAGC
binding result (GST-E2F1 [1]; blunt): binds

B4: N-myc E2F site (dsDNA)
DNA 1: GATCCTTTTGGCGCGAAAGGCTTAGATC
DNA 2: GATCTAAGCCTTTCGCGCCAAAAGGATC
binding result (GST-E2F1 [2]): binds

B5: EBP1 -136 probe (-136 to -100) (dsDNA)
DNA 1: TAGTTCGAAGGCCCTCGAGAGCGGCTAGAGTCTGG
DNA 2: GCAGACTCTAGCCGCTCTCGAGGGCCTTCGAACTA
binding result (GST-E2F1 [1]; [5]): binds

B6: EBP1 -166 (-158*) (dsDNA)
DNA 1: TTAGGAAAAAAAGAGGCAGGCTGGGAATTGTAGTTCGAAGGCCCTCGAGAGCGGCTAGAGTC
DNA 2: GACTCTAGCCGCTCTCGAGGGCCTTCGAACTACAATTCCCAGCCTGCCTCTTTTTTTCCTAA
binding result (GST-E2F1 [1]; blunt): binds

B7: EBP1 -166 (both*) (dsDNA)
DNA 1: B6 DNA 1 with G51A, C52A, G53A, G54A, C55A
DNA 2: B6 DNA 2 with G8T, C9T, C10T, G11T, C12T
binding result (GST-E2F1 [1]; blunt): no binding

B8: EBP1 -166 wt (-166 to -104) (dsDNA)
DNA 1: B6 DNA 1 with A7G, A8C, A9G, A10C, A11G
DNA 2: B6 DNA 2 with T52C, T53G, T54C, T55G, T56C
binding result (GST-E2F1 [3]): binds

B9: EBP1 -158* (dsDNA)
DNA 1: GCTTAGGAAAAAAAGAGGCAGGCTGGGAATTGTAGTTC
DNA 2: GAACTACAATTCCCAGCCTGCCTCTTTTTTTCCTAAGC
binding result (GST-E2F1 [1]; blunt): no binding

B10: DHFR E2F site mutant (dsDNA)
DNA 1: CTAGAGCAATTTAAAAACAAACTTGGATC
DNA 2: GATCCAAGTTTGTTTTTAAATTGCTCTAG
binding result (GST-E2F1 [2]): no binding

B11: TIMELESS E2F site (dsDNA)
DNA 1: CAGAAAATTCATAGCGCTGTGATTTTTAGATC
DNA 2: GATCTAAAAATCACAGCGCTATGAATTTTCTG
binding result (GST-E2F1 [4]): binds

B12: TIMELESS E2F site mutant (dsDNA)
DNA 1: B11 DNA 1 with G14A, C15A, G16A, C17A
DNA 2: B11 DNA 2 with G16T, C17T, G18T, C19T
binding result (GST-E2F1 [2]): no binding

B13: EBP1 -113* (dsDNA)
DNA 1: TAGTTCGAAGGCCCTCGAGAAAAAATAGAGTCTGG
DNA 2: GCAGACTCTATTTTTTCTCGAGGGCCTTCGAACTA
binding result (GST-E2F1 [1]; [5]): no binding

B14: DHFR E2F site (dsDNA)
DNA 1: CTAGAGCAATTTCGCGCCAAACTTGGATC
DNA 2: GATCCAAGTTTGGCGCGAAATTGCTCTAG
binding result (GST-E2F1 [2]; label: 32P as probe): binds
